This experiment concerns the target dengue virus envelope protein (dengue virus serotype 2 strain New Guinea C). Put plainly: proximity ligation.

Drawing on article PMC8903895, this text covers PLA foci per cell (WT cells) (foci per cell), PLA foci per cell (YBX1 KO1 cells) (foci per cell) and PLA foci per cell (YBX1 KO2 cells) (foci per cell) for 2 substances.

Substance “dengue virus capsid protein (natural protein)” yielded a PLA foci per cell (WT cells) (foci per cell) of 11, a PLA foci per cell (YBX1 KO1 cells) (foci per cell) of 5 and a PLA foci per cell (YBX1 KO2 cells) (foci per cell) of 7.

In turn, “dengue virus prM protein (natural protein)” returned a PLA foci per cell (WT cells) (foci per cell) of 26, a PLA foci per cell (YBX1 KO1 cells) (foci per cell) of 58 and a PLA foci per cell (YBX1 KO2 cells) (foci per cell) of 27.
